In IntAct's records for PubMed 17304241:

B1: Protein zyg-11 homolog B (Homo sapiens), Q9C0D3 (parent)
chain: MPEDQAGAAMEEASPYSLLDICLNFLTTHLEKFCSARQDGTLCLQEPGVFPQEVADRLLRTMAFHGLLNDGTVGIFRGNQMRLKRACIRKAKISAVAFRKAFCHHKLVELDATGVNADITITDIISGLGSNKWIQQNLQCLVLNSLTLSLEDPYERCFSRLSGLRALSITNVLFYNEDLAEVASLPRLESLDISNTSITDITALLACKDRLKSLTMHHLKCLKMTTTQILDVVRELKHLNHLDISDDKQFTSDIALRLLEQKDILPNLVSLDVSGRKHVTDKAVEAFIQQRPSMQFVGLLATDAGYSEFLTGEGHLKVSGEANETQIAEALKRYSERAFFVREALFHLFSLTHVMEKTKPEILKLVVTGMRNHPMNLPVQLAASACVFNLTKQDLAAGMPVRLLADVTHLLLKAMEHFPNHQQLQKNCLLSLCSDRILQDVPFNRFEAAKLVMQWLCNHEDQNMQRMAVAIISILAAKLSTEQTAQLGTELFIVRQLLQIVKQKTNQNSVDTTLKFTLSALWNLTDESPTTCRHFIENQGLELFMRVLESFPTESSIQQKVLGLLNNIAEVQELHSELMWKDFIDHISSLLHSVEVEVSYFAAGIIAHLISRGEQAWTLSRSQRNSLLDDLHSAILKWPTPECEMVAYRSFNPFFPLLGCFTTPGVQLWAVWAMQHVCSKNPSRYCSMLIEEGGLQHLYNIKDHEHTDPHVQQIAVAILDSLEKHIVRHGRPPPCKKQPQARLN

Variants of: B1
Conditions: with eloc_human ELOC

effect of a mutation on the interaction	Variant
disrupting interaction	C22S
disrupting interaction	L18S
